Assay [1] deals with YFP^N-TaHSP90 (Triticum aestivum). As to the kind of experiment: split reporter (BiFC, NanoBiT); BiFC in tobacco (Nicotiana benthamiana) protoplasts; YFP^N (pSY736) and YFP^C (pSY735) fusions co-expressed by the polyethylene glycol method; fluorescence monitored 24-48 hours after transformation; fluorescent and observed cells counted from ten fields of vision.
Assay [2] has as its target YFP^N-TaNPSN11 (full-length TaNPSN11 fused to the N-terminal part of YFP) (Triticum aestivum (common wheat)). Described as above.

YFP^N-TaNPSN11 (full-length TaNPSN11 fused to the N-terminal part of YFP) (Triticum aestivum (common wheat)), sequence (main, as listed by the source): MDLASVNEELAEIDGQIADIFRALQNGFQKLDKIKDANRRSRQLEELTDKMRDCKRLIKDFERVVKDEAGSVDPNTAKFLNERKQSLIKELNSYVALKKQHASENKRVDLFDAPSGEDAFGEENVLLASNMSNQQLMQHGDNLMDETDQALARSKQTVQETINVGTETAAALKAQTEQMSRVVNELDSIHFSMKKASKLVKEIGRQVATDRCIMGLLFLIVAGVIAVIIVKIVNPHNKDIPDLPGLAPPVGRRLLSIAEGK

Turning to YFP^C-TaRAR1 (natural protein), in assay [1], the ratio of fluorescent cells turned out to be 0.25.

“YFP^C-TaSYP132 (full-length TaSYP132 fused to the C-terminal part of YFP) (natural protein)”: the ratio of fluorescent cells in assay [2] is 0.06.

Values taken from publication PMC4144766.
